The results in this text go back to PMC10755749.

Data set [1] relates to MPXV A29 protein (mpox virus). Nature of the data set: SPR.
In data set [2] the test system is MPXV A29 protein;anti-A29 IgG antibody (mpox virus;). The data set can be described thus: single-molecule nanopore. As to conditions: 5'-phosphate on aptamer probe, ligated into carrier.
The subject of data set [3] is VACV A27 protein;anti-A29 IgG antibody (Vaccinia virus (Copenhagen?);). The data set can be described thus: single-molecule nanopore. As to conditions: 5'-phosphate on aptamer probe, ligated into carrier.
In the next data set the test system is anti-A29 IgG antibody. Nature of the data set: single-molecule nanopore. As to conditions: 5'-phosphate on aptamer probe, ligated into carrier.
Data set [4] deals with VZV protein;anti-A29 IgG antibody (Varicella zoster virus;). Nature of the data set: single-molecule nanopore. As to conditions: 5'-phosphate on aptamer probe, ligated into carrier.
For data set [5], the system named is MPXV A29 protein;anti-A29 IgG antibody (mpox virus;). The data set can be described thus: single-molecule nanopore. As to conditions: 5'-phosphate on aptamer probe, ligated into carrier. The source holds these as a separate data set.
Data set [6] shares this test system. Nature of the data set: single-molecule nanopore, Hill fit. Conditions: 5'-phosphate on aptamer probe, ligated into carrier.

As for “AGCACTCCACGCATAACCGGTGGGCGGGGGATGTGGGAAGGTATCGGGGTTGCGTTATGCGTGCTACCGT [HIM-A29-5]”, the dissociation constant (Kd) in data set [1] is 8.49 nM.

The sequence “AGCACTCCACGCATAACGGAGCCGGGGGGCCTTGGGGGATGCAGCTTCGAAGTGTTATGCGTGCTACCGT [HIM-A29-2]” yielded a Kd in data set [1] of 35.4 nM.

“AGCACTCCACGCATAACGGGGGAGGAGGAGGATGTTATTGGGTGGGCGGGTTTGTTATGCGTGCTACCGT [HIM-A29-4]” showed a Kd in data set [1] of 18.6 nM. On the same count and under the same terms, the same measure for “AGCACTCCACGCATAACGGGGGAGGAGGAGGTTCACTTTGGGCGGGTGGGAATGTTATGCGTGCTACCGT [HIM-A29-3]”: 12.4 nM; for “AGCACTCCACGCATAACGGGGTCTGGTGGTCTGGCTGGTTTGGGGGTTTGGTCGTTATGCGTGCTACCGT [HIM-A29-1]”: 10.8 nM. On the same count and under the same terms, the same measure for “CACGCATAACGTCTTGCGGGGCGGCGGGTTGAGAGGATGTCGGGTGGTTATGCGTG [HIM-A29-6]”: under 10 nM. “CACTGCGCCGGTATCGATATATTTTTTCACGCATAACGTCTTGCGGGGCGGCGGGTTGAGAGGATGTCGGGTGGTTATGCGTG / AAACCACTCAAGTTTGCCAACCAAATGTATATCGATACCGGCGCAGTG [9.1 kbp DNA molecular probe with HIM-A29-6]”: the binding signal (% events with subpeak) in data set [2] worked out at 3.98; in data set [3], 0.01; in the data set on anti-A29 IgG antibody, 0.01; in data set [4] it was 0; in data set [5] it was 3.98. Moreover, the Kd in data set [6] stood at 0.0823 nM.
